Results: patent publication US20240270821A1, “GIP/GLP1/GCG TRI-RECEPTOR AGONISTS AND USES THEREOF” (priority 2023, published 2024)
Starred links: 1 amine or outer side, 2 acyl side, 3 side chain; linkers in the order of their positions; H or OH if unused. Non-standard residues stand in square brackets, D forms with d. Groups on a side chain read outwards from the residue. No end group written: not given here. *: point of attachment. C18 diacid = O=C(O)CCCCCCCCCCCCCCCCC(=O)*; γGlu = O=C(O)[C@H](CCC(=O)[*:2])N[*:1]; αMeL = CC(C)C[C@](C)(N)C(=O)O; Dap = NC[C@H](N)C(=O)O; Aib = CC(C)(N)C(=O)O

T1: human GIP receptor (human) (UniProt P48546)
T1 sequence (looked up): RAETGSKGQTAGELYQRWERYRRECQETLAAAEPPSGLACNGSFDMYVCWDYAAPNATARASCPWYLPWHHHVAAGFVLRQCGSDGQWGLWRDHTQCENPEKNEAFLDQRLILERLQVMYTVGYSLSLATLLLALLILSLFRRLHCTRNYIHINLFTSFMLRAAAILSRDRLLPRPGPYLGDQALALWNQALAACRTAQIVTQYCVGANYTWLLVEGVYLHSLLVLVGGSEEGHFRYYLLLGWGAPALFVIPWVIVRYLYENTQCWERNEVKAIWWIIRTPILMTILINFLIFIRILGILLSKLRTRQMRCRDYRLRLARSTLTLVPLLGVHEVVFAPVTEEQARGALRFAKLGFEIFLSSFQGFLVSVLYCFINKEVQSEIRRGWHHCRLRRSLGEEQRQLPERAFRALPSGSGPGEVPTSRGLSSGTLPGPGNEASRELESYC


What was measured:
Assay in all cases: cell-based or functional assay
[1] = biological target: T1, human GIP receptor (human)
hGLP-1R = hGLP-1R (Homo sapiens, UniProt P43220)
Sequence of hGLP-1R (P43220 24-463): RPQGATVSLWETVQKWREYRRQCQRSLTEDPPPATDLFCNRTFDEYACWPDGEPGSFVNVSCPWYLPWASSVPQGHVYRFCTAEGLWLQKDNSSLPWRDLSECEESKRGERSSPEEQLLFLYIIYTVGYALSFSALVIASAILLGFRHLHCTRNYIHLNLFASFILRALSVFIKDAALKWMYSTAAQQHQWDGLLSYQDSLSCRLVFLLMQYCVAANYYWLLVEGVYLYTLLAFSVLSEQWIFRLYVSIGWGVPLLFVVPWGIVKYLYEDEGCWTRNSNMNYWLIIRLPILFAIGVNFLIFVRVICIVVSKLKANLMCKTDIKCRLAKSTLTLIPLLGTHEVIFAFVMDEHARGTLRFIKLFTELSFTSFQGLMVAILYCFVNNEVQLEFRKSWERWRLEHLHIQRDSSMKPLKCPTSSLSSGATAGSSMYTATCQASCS

[2] = biological target: human glucagon receptor (human) (UniProt P47871)
Sequence of human glucagon receptor (human) (P47871 26-477): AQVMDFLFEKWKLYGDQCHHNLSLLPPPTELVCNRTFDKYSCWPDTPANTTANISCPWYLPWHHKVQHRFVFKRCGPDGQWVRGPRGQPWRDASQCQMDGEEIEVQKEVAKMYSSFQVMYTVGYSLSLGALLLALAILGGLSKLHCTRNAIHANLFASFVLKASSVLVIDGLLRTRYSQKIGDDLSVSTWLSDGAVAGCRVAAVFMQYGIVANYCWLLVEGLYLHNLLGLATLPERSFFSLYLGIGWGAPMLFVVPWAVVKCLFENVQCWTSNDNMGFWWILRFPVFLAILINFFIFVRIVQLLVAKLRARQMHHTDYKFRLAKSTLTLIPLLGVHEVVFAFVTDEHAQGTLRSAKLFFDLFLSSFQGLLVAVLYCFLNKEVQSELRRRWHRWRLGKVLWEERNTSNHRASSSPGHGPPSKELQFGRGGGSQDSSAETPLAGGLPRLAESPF

Binder | Relative cAMP EC50 [1] [nM] | Relative cAMP EC50 (hGLP-1R) [nM] | Relative cAMP EC50 [2] [nM] | cAMP Rel EC50, nM (1% HSA) [1] [nM] | cAMP Rel EC50, nM (1% HSA) (hGLP-1R) [nM] | cAMP Rel EC50, nM (1% HSA) [2] [nM]
YXQGTXTSDXSIXLDXKAQXXFIEXLIEGGPSSGEPPPSGE (synthetic construct; SITE 2: note = 2-Aminoisobutyric Acid; SITE 6: note = alpha-methyl-2-fluoro-L-phenylalanine; SITE 10: note = 3-(4-Pyridyl)-L-alanine; SITE 13: note = alpha-methyl-leucine; SITE 16: note = L-ornithine; SITE 17: note = Lysine is chemically modified through conjugation of the epsil) [Example 682 (SEQ ID NO: 688)] | 0.00661 | 0.212 | 1.91 | – | – | –
YXQGTXTSDXXIXLDXKAAXEFIEXLVEGGPSSGEPPPSGS (synthetic construct; SITE 2: note = 2-Aminoisobutyric Acid; SITE 6: note = alpha-methyl-2-fluoro-L-phenylalanine; SITE 10: note = 3-(4-Pyridyl)-L-alanine; SITE 11: note = alpha-methyl-L-serine; SITE 13: note = alpha-methyl-leucine; SITE 16: note = L-ornithine; SITE 17: note = Lysine is chemically mo) [Example 695 (SEQ ID NO: 701)] | 0.0136 | 0.254 | 1.93 | – | – | –
Y[Aib]QGTFTSDFS[Dap][αMeL]LDKK([γGlu-γGlu-C18 diacid])AQ[Aib]AFIEYLLE[Aib]GPSSGAPPPSGS-NH2 [Example 203] | – | – | – | 19 | 532 | 1160
YXQGTFTSDXSRXLDKKAQXAFIEYLIEXSPSSGAPPPSGS (synthetic construct; SITE 2: note = 2-Aminoisobutyric Acid; SITE 10: note = 3-(4-Pyridyl)-L-alanine; SITE 13: note = alpha-methyl-leucine; SITE 17: note = Lysine is chemically modified through conjugation of the epsilon-amino group of the Lysine side chain with (2-[2-(2-Amino-ethoxy)-ethoxy]-acetyl)) [Example 807] | 0.108 | 1.72 | 12.4 | – | – | –
YXQGTFTSDXSQXLDKKAQXAFIEXLIEXGPSSGAPPPSGE (Aib, 4Pal, αMeL, Me4Pal; acylated K; C-terminal amide; synthetic construct; SITE 2: note = 2-Aminoisobutyric Acid; SITE 10: note = 3-(4-Pyridyl)-L-alanine; SITE 13: note = alpha-methyl-leucine; SITE 17: note = Lysine is chemically modified through conjugation of the epsilon-amino group of the Lysine side chain with (gamma-Glu)2-CO-(CH2)16-CO2H; SITE 20:) [Example 1120] | 0.096 | 4.5 | 5.17 | – | – | –
YXQGTFTSDXSQXLDKKAQXAFIEYLIEXGPSSGAPPPSGSGE (not fully specified; possible C-terminal amide; synthetic construct; SITE 2: note = 2-Aminoisobutyric Acid; SITE 10: note = 3-(4-Pyridyl)-L-alanine; SITE 13: note = alpha-methyl-leucine; SITE 17: note = Lysine is chemically modified through conjugation of the epsilon-amino group of the Lysine side chain with (gamma-Glu)2-CO-(CH2)16-CO2H; SITE 20:) [Example 891] | 0.155 | 3.25 | 3.14 | – | – | –
YXQGTFTSDXSQXLDXKAQXAFIEYLIEXGPSSGAPPPSGSEE (synthetic construct; SITE 2: note = 2-Aminoisobutyric Acid; SITE 10: note = 3-(4-Pyridyl)-L-alanine; SITE 13: note = alpha-methyl-leucine; SITE 16: note = L-ornithine; SITE 17: note = Lysine is chemically modified through conjugation of the epsilon-amino group of the Lysine side chain with (gamma-Gl)) [Example 937] | 0.222 | 2.52 | 5.52 | – | – | –
YXQGTFTSDXSQXLDKKAQXAFIEXLLEGGPSSGAPPPSGSEE (synthetic construct; SITE 2: note = 2-Aminoisobutyric Acid; SITE 10: note = 3-(4-Pyridyl)-L-alanine; SITE 13: note = alpha-methyl-leucine; SITE 17: note = Lysine is chemically modified through conjugation of the epsilon-amino group of the Lysine side chain with (gamma-Glu)2-CO-(CH2)16-CO2H; SITE 20:) [Example 945] | 0.246 | 3.9 | 18 | – | – | –
YXQGTFTSDXSQXLDXKAQXAFIEXLIEXGPSSGAPPPSGSEE (non-natural residues; C18 diacid-γGlu-AEEA on Lys; C-terminal amide; synthetic construct; SITE 2: note = 2-Aminoisobutyric Acid; SITE 10: note = 3-(4-Pyridyl)-L-alanine; SITE 13: note = alpha-methyl-leucine; SITE 16: note = L-ornithine; SITE 17: note = Lysine is chemically modified through conjugation of the epsilon-amino group of the Lysine side chain with (2-[2-(2-) [Example 1108] | 0.0507 | 0.752 | 4.96 | – | – | –
YXQGTFTSDXSQXLDXKAQXAFIEXLIAXGPSSGAPPPSGSEE (non-natural residues, lipidated Lys, C-terminal amide; synthetic construct; SITE 2: note = 2-Aminoisobutyric Acid; SITE 10: note = 3-(4-Pyridyl)-L-alanine; SITE 13: note = alpha-methyl-leucine; SITE 16: note = L-ornithine; SITE 17: note = Lysine is chemically modified through conjugation of the epsilon-amino group of the Lysine side chain with (gamma-Gl)) [Example 1107] | 0.0447 | 0.51 | 5.66 | – | – | –
YXQGTFTSDXSQXLDXKAQXQFIEXLIEXGPSSGAPPPSGSEE (Aib, 4Pal, αMeL, Orn, Me4Pal, αMeY; acylated lysine; amide; synthetic construct; SITE 2: note = 2-Aminoisobutyric Acid; SITE 10: note = 3-(4-Pyridyl)-L-alanine; SITE 13: note = alpha-methyl-leucine; SITE 16: note = L-ornithine; SITE 17: note = Lysine is chemically modified through conjugation of the epsilon-amino group of the Lysine side chain with (2-[2-(2-) [Example 1109] | 0.0626 | 2.3 | 10.8 | – | – | –
YXQGTFTSDXSXXLDKKAQXAFIEXLLEGGPSSGAPPPSGSEE (synthetic construct; SITE 2: note = 2-Aminoisobutyric Acid; SITE 10: note = 3-(4-Pyridyl)-L-alanine; SITE 12: note = L-ornithine; SITE 13: note = alpha-methyl-leucine; SITE 17: note = Lysine is chemically modified through conjugation of the epsilon-amino group of the Lysine side chain with (gamma-Gl)) [Example 944] | 0.216 | 4.86 | 6.16 | – | – | –
YXQGTFTSDXSQXLDKKAQXAFIEXLIEXGPSSGAPPPSGTGE (Aib, 4Pal, αMeL, Me4Pal; acylated Lys; C-terminal amide; synthetic construct; SITE 2: note = 2-Aminoisobutyric Acid; SITE 10: note = 3-(4-Pyridyl)-L-alanine; SITE 13: note = alpha-methyl-leucine; SITE 17: note = Lysine is chemically modified through conjugation of the epsilon-amino group of the Lysine side chain with (gamma-Glu)2-CO-(CH2)16-CO2H; SITE 20:) [Example 1119] | 0.0939 | 3.57 | 7.61 | – | – | –
YXQGTFTSDXSQXLDXKAQXAFIEXLIEXGPSSGAPPPSGSEE (non-natural residues; acylated Lys; C-terminal amide; synthetic construct; SITE 2: note = 2-Aminoisobutyric Acid; SITE 10: note = 3-(4-Pyridyl)-L-alanine; SITE 13: note = alpha-methyl-leucine; SITE 16: note = L-ornithine; SITE 17: note = Lysine is chemically modified through conjugation of the epsilon-amino group of the Lysine side chain with D-Glutami) [Example 1112] | 0.254 | 0.957 | 10.7 | – | – | –
YXQGTFTSDXSQXLDXKAQXAFIEXLLEGGPSSGAPPPSGSEE (synthetic construct; SITE 2: note = 2-Aminoisobutyric Acid; SITE 10: note = 3-(4-Pyridyl)-L-alanine; SITE 13: note = alpha-methyl-leucine; SITE 16: note = L-ornithine; SITE 17: note = Lysine is chemically modified through conjugation of the epsilon-amino group of the Lysine side chain with (gamma-Gl)) [Example 946] | 0.353 | 2.05 | 16.5 | – | – | –
YXQGTFTSDXSQXLDKKAQXAFIEXLIEXGPSSGAPPPSGSEE (Aib, 4Pal, αMeL, Me4Pal; K (γGlu)2-C18 diacid; amide; synthetic construct; SITE 2: note = 2-Aminoisobutyric Acid; SITE 10: note = 3-(4-Pyridyl)-L-alanine; SITE 13: note = alpha-methyl-leucine; SITE 17: note = Lysine is chemically modified through conjugation of the epsilon-amino group of the Lysine side chain with (gamma-Glu)2-CO-(CH2)16-CO2H; SITE 20:) [Example 1122] | 0.109 | 5.66 | 10.3 | – | – | –
YXQGTFTSDXSQXLDXKAQXAFIEXLIAXGPSSGAPPPSGSEE (not fully specified; Aib, 4Pal, αMeL, Orn, Me4Pal, αMeY; γGlu-C18 diacid Lys; C-term amide; synthetic construct; SITE 2: note = 2-Aminoisobutyric Acid; SITE 10: note = 3-(4-Pyridyl)-L-alanine; SITE 13: note = alpha-methyl-leucine; SITE 16: note = L-ornithine; SITE 17: note = Lysine is chemically modified through conjugation of the epsilon-amino group of the Lysine side chain with D-Glutami) [Example 1114] | 0.0478 | 0.84 | 11.5 | – | – | –
YXQGTFTSDXSQXLDKKAQXAFIEXLIEXGPSSGAPPPSGTGE (non-natural residues; Lys acylated AEEA-γGlu-C18 diacid; C-terminal amide; synthetic construct; SITE 2: note = 2-Aminoisobutyric Acid; SITE 10: note = 3-(4-Pyridyl)-L-alanine; SITE 13: note = alpha-methyl-leucine; SITE 17: note = Lysine is chemically modified through conjugation of the epsilon-amino group of the Lysine side chain with (2-[2-(2-Amino-ethoxy)-ethoxy]-acetyl)) [Example 1117] | 0.124 | 3.51 | 4.93 | – | – | –
YXQGTFTSDXSQXLDKKAQXAFIEYLIEXGPSSGAPPPSGTGE (Aib, 4Pal, Me4Pal, alpha-methyl-Leu, lipidated Lys, C-terminal amide; synthetic construct; SITE 2: note = 2-Aminoisobutyric Acid; SITE 10: note = 3-(4-Pyridyl)-L-alanine; SITE 13: note = alpha-methyl-leucine; SITE 17: note = Lysine is chemically modified through conjugation of the epsilon-amino group of the Lysine side chain with (gamma-Glu)2-CO-(CH2)16-CO2H; SITE 20:) [Example 1127] | 0.167 | 6.16 | 5.95 | – | – | –
